B1: GLP-1 derivative of Example 93: [Aib8,Lys18,Arg34]-GLP-1-(7-37)-peptide (peptide)
peptide: HXEGTFTSDVSKYLEGQAAKEFIAWLVRGRG
modifications: Aib8; Lys18 and Lys26 each Nε-acylated with 10-(4-carboxyphenoxy)decanoyl-gGlu-OEG-OEG

*1 amine or outer side, *2 acyl side, *3 side chain or, on linkers, in order; H or OH if unused. Where no end group is shown, it is not given here. Side-chain parts run from the residue outwards. [ ]: non-standard residue; d: D form. The star is where a group is joined. Decanoyl(10-(4-HOOC-PhO)) = O=C(O)c1ccc(OCCCCCCCCCC(=O)*)cc1; γGlu = O=C(O)[C@H](CCC(=O)[*:2])N[*:1]; 13‑carboxytridecanoyl = C14 diacid; AEEA = NCCOCCOCC(=O)O; Aib = CC(C)(N)C(=O)O Bounds are passed on as bounds.

In the first assay the target is T1, human GLP-1 receptor (human, UniProt P43220 24-463).
T1 construct: whole, on cells; Used as purified membranes of the transfected hamster cells, not whole cells; also called hGLP-1
Put plainly: SPA, 2.0% vs 0.005% HSA. The procedure: (§1) A shift in the binding affinity, $IC50$, is an indication that the derivative in question binds to albumin, and thereby a prediction of a potential protracted pharmacokinetic profile of the derivative in question in animal models.
(§2) 25 ul (microliter) of test compounds are added to Optiplate. HSA ("high albumin" experiment containing 2% HSA), or buffer ("low albumin" experiment containing 0.005% HSA), was added (50 ul). 5-10 µg protein/sample was added (50 ul) corresponding to 0.1-0.2 mg protein/ml (to be preferably optimised for each membrane preparation). SPA-particles (Wheatgerm agglutinin SPA beads, Perkin Elmer, #RPNQ0001) were added in an amount of 0.5 mg/well (50 ul). […] The plates were sealed with PlateSealer and incubated for 120 minutes at 30° C. while shaking. The plates were centrifuged (1500 rpm, 10 min) and counted in Topcounter.
As to H[Aib]EGTFTSDVSK([AEEA-AEEA-γGlu-Decanoyl(10-(4-HOOC-PhO))])YLEEQAAK([AEEA-AEEA-γGlu-Decanoyl(10-(4-HOOC-PhO))])EFIAWLVQGRG [GLP-1 derivative of Example 2: [Aib8,Lys18,Glu22,Gln34]-GLP-1-(7-37)-peptide], the “ratio IC50 high HSA/IC50 low HSA” value is greater than 1.

In the case of H[Aib]EGTFTSDVSK([AEEA-AEEA-γGlu-Decanoyl(10-(4-HOOC-PhO))])YLEEQAVRK([AEEA-AEEA-γGlu-Decanoyl(10-(4-HOOC-PhO))])FIAWLVQGRG [GLP-1 derivative of Example 41: [Aib8,Lys18,Glu22,Val25,Arg26,Lys27,Gln34]-GLP-1-(7-37)-peptide], the “ratio IC50 high HSA/IC50 low HSA” value was greater than 1.

Regarding H[Aib]EGTFTSDVSK([AEEA-AEEA-γGlu-13‑carboxytridecanoyl])YLEEQAAREFIK([AEEA-AEEA-γGlu-13‑carboxytridecanoyl])WLVRGRG [GLP-1 derivative of Example 51: [Aib8,Lys18,Glu22,Arg26,Lys30,Arg34]-GLP-1-(7-37)-peptide], the “ratio IC50 high HSA/IC50 low HSA” value was greater than 1.

H[Aib]EGTFTSDVSK([AEEA-AEEA-γGlu-Decanoyl(10-(4-HOOC-PhO))])YLEEQAVREFIAK([AEEA-AEEA-γGlu-Decanoyl(10-(4-HOOC-PhO))])LVRGRG [GLP-1 derivative of Example 76: [Aib8,Lys18,Glu22,Val25,Arg26,Lys31,Arg34]-GLP-1-(7-37)-peptide]: the “ratio IC50 high HSA/IC50 low HSA” value is greater than 1.

For H[Aib]EGTFTSDVSK([AEEA-AEEA-γGlu-Decanoyl(10-(4-HOOC-PhO))])YLEEQAAREFIAK([AEEA-AEEA-γGlu-Decanoyl(10-(4-HOOC-PhO))])LVRGRG [GLP-1 derivative of Example 3: [Aib8,Lys18,Glu22,Arg26,Lys31,Arg34]-GLP-1-(7-37)-peptide], the “ratio IC50 high HSA/IC50 low HSA” value is greater than 1.

For the molecule H[Aib]EGTFTSDVSK([AEEA-AEEA-γGlu-Decanoyl(10-(4-HOOC-PhO))])YLEEQAAK([AEEA-AEEA-γGlu-Decanoyl(10-(4-HOOC-PhO))])EFIAWLVRGRG [GLP-1 derivative of Example 88: [Aib8,Lys18,Glu22,Arg34]-GLP-1-(7-37)-peptide], the “ratio IC50 high HSA/IC50 low HSA” value is greater than 1.

Turning to H[Aib]EGTFTSDVSK([AEEA-AEEA-γGlu-Decanoyl(10-(4-HOOC-PhO))])YLEGQAAK([AEEA-AEEA-γGlu-Decanoyl(10-(4-HOOC-PhO))])EFIAWLVQGRG [GLP-1 derivative of Example 92: [Aib8,Lys18,Gln34]-GLP-1-(7-37)-peptide], the “ratio IC50 high HSA/IC50 low HSA” value is greater than 1.

On to H[Aib]EGTFTSDVSK([AEEA-AEEA-γGlu-Decanoyl(10-(4-HOOC-PhO))])YLEEQAAREFIAWLVRGRK([AEEA-AEEA-γGlu-Decanoyl(10-(4-HOOC-PhO))]) [GLP-1 derivative of Example 1: [Aib8,Lys18,Glu22,Arg26,Arg34,Lys37]-GLP-1-(7-37)-peptide], for which the “ratio IC50 high HSA/IC50 low HSA” value is greater than 1.

Regarding B1, the “ratio IC50 high HSA/IC50 low HSA” value is greater than 1.

With H[Aib]EGTFTSDVSK([AEEA-AEEA-γGlu-13‑carboxytridecanoyl])YLEEQAAREFIAK([AEEA-AEEA-γGlu-13‑carboxytridecanoyl])LVRGRG [GLP-1 derivative of Example 73: [Aib8,Lys18,Glu22,Arg26,Lys31,Arg34]-GLP-1-(7-37)-peptide], the “ratio IC50 high HSA/IC50 low HSA” value was greater than 1.

In a further assay the target is T1, human GLP-1 receptor. The experiment in a line: SPA, displacement of 125I-GLP-1(7-36)NH2, 0.005% HSA. As for the experimental part: as §1, §2
As for H[Aib]EGTFTSDVSK([AEEA-AEEA-γGlu-Decanoyl(10-(4-HOOC-PhO))])YLEEQAAK([AEEA-AEEA-γGlu-Decanoyl(10-(4-HOOC-PhO))])EFIAWLVQGRG [GLP-1 derivative of Example 2: [Aib8,Lys18,Glu22,Gln34]-GLP-1-(7-37)-peptide], the IC50 was less than 1000 nM.

For H[Aib]EGTFTSDVSK([AEEA-AEEA-γGlu-Decanoyl(10-(4-HOOC-PhO))])YLEEQAVRK([AEEA-AEEA-γGlu-Decanoyl(10-(4-HOOC-PhO))])FIAWLVQGRG [GLP-1 derivative of Example 41: [Aib8,Lys18,Glu22,Val25,Arg26,Lys27,Gln34]-GLP-1-(7-37)-peptide], the 50% inhibitory concentration (IC50) was less than 1000 nM.

Consider H[Aib]EGTFTSDVSK([AEEA-AEEA-γGlu-13‑carboxytridecanoyl])YLEEQAAREFIK([AEEA-AEEA-γGlu-13‑carboxytridecanoyl])WLVRGRG [GLP-1 derivative of Example 51: [Aib8,Lys18,Glu22,Arg26,Lys30,Arg34]-GLP-1-(7-37)-peptide], for which the IC50 was less than 1000 nM.

The molecule H[Aib]EGTFTSDVSK([AEEA-AEEA-γGlu-Decanoyl(10-(4-HOOC-PhO))])YLEEQAVREFIAK([AEEA-AEEA-γGlu-Decanoyl(10-(4-HOOC-PhO))])LVRGRG [GLP-1 derivative of Example 76: [Aib8,Lys18,Glu22,Val25,Arg26,Lys31,Arg34]-GLP-1-(7-37)-peptide] displayed an IC50 of less than 1000 nM.

Turning to H[Aib]EGTFTSDVSK([AEEA-AEEA-γGlu-Decanoyl(10-(4-HOOC-PhO))])YLEEQAAREFIAK([AEEA-AEEA-γGlu-Decanoyl(10-(4-HOOC-PhO))])LVRGRG [GLP-1 derivative of Example 3: [Aib8,Lys18,Glu22,Arg26,Lys31,Arg34]-GLP-1-(7-37)-peptide], the IC50 is less than 1000 nM.

Molecule H[Aib]EGTFTSDVSK([AEEA-AEEA-γGlu-Decanoyl(10-(4-HOOC-PhO))])YLEEQAAK([AEEA-AEEA-γGlu-Decanoyl(10-(4-HOOC-PhO))])EFIAWLVRGRG [GLP-1 derivative of Example 88: [Aib8,Lys18,Glu22,Arg34]-GLP-1-(7-37)-peptide] returned an IC50 of less than 1000 nM.

H[Aib]EGTFTSDVSK([AEEA-AEEA-γGlu-Decanoyl(10-(4-HOOC-PhO))])YLEGQAAK([AEEA-AEEA-γGlu-Decanoyl(10-(4-HOOC-PhO))])EFIAWLVQGRG [GLP-1 derivative of Example 92: [Aib8,Lys18,Gln34]-GLP-1-(7-37)-peptide] yielded an IC50 of less than 1000 nM.

As for H[Aib]EGTFTSDVSK([AEEA-AEEA-γGlu-Decanoyl(10-(4-HOOC-PhO))])YLEEQAAREFIAWLVRGRK([AEEA-AEEA-γGlu-Decanoyl(10-(4-HOOC-PhO))]) [GLP-1 derivative of Example 1: [Aib8,Lys18,Glu22,Arg26,Arg34,Lys37]-GLP-1-(7-37)-peptide], the IC50 is less than 1000 nM.

Molecule B1 gave a half-inhibitory concentration (IC50) of less than 1000 nM.

Consider H[Aib]EGTFTSDVSK([AEEA-AEEA-γGlu-13‑carboxytridecanoyl])YLEEQAAREFIAK([AEEA-AEEA-γGlu-13‑carboxytridecanoyl])LVRGRG [GLP-1 derivative of Example 73: [Aib8,Lys18,Glu22,Arg26,Lys31,Arg34]-GLP-1-(7-37)-peptide], for which the IC50 is less than 1000 nM.

The record behind these values is US9708383 (Novo Nordisk, dated 2017).
